The text below walks through data of EP4375293A1 (Max-Planck-Gesellschaft zur Förderung der Wissenschaften …, dated 2024).

The chains are these.
B1: Ma28H11 (VHH)
VHH: QVQLVESGGGLVQPGGSLRLSCATSGLTLDHYAIGWFLQAPGKEREGVACVSDDERSLYAPSVMGRFSISRDNAKKTFYLEMNSLKPEDTGVYYCASGPVVPGTLCRIPTVLGYDDWGQGTQVTVSS
notes: Monomeric VHH; also called M28H11
B2: Ma28D01 (VHH)
VHH: QVQLVESGGGLVQPGGSLRLSCVVSELGLDYYQIGWFRQAPGKEREGVSCFRSSDEIRYYADSVKGRFTTFRDNAGTTVYLQMNSLKPEDTGVYYCAVAPQTYYHGTWYGECAAAGMDSWGKGTQVTVSS
notes: Monomeric VHH
B3: Ma28F04 (VHH)
VHH: B2 VHH with E26D, S63P, Q125L
notes: Monomeric VHH
B4: Ma16B06 (VHH)
VHH: QVQLVESGGGLVRTGGSLRLSCAASGSILQIWAMKWYRQAPGLQREWIATIPNSGEPFYASSVEGRFTGSRENEETVYLYLNNLEPEDTAVYYCEVNEGVPVREYWGQGTQVTVSS
notes: Monomeric VHH; also called VHH Ma16B06
B5: Re32D03 (VHH)
VHH: QVQLVESGGGLVQPGGSLRLSCAISGITLDYYAVGWFLQAPGKEREGISCMRNWDGRTVYAPSVKGRFTISSDNAKKMVYLEMDNLKSEDTGVYYCAAGPLPPGISCRIPTPLGYDDWGQGTQVTVSS
B6: Re9B09 (VHH)
VHH: QVQLVESGGGLVQPGGSLRLSCAASGFTLDYYAIGWFRQAPGKEREGVSRISSSDGSTDYADSVKGRFTISRDNAKNTVYLQMNSLKPEDTAVYYCATVPGTYYSGNWYYTWHPEAVDYWGKGTQVTVSS
B7: Re5D06 (VHH)
VHH: QVQLVESGGGLVQPGGSLRLSCAASGITLDYYAIGWFRQAPGKEREGVSRIRSSDGSTNYADSVKGRFTMSRDNAKNTVYLQMNSLKPEDTAVYYCAYGPLTKYGSSWYWPYEYDYWGQGTQVTVSS
B8: Re6H06 (VHH)
VHH: QVQLVESGGGLVQPGGSLRLSCAASGVTLDYYAIGWFRQAPGKEREGVSCTSSSDGSTYYADSVKGRFTISRDNAKNTVYLQMNSLKPEDTGVYYCAVVPQTYYGGKYYSQCTANGMDYWGKGTLVTVSS

Where a chain is given by its changes, count along the chain named. Some results are limits rather than exact numbers.

The first experiment addresses SARS-CoV-2 spike protein of the original Wuhan strain (SARS-CoV-2 (Wuhan/Wildtype strain), UniProt P0DTC2 14-1273). The experiment is described as follows: cell-based or functional assay.
As to B1, the “Lowest virus neutralizing concentration (pM; IC99)” value was 170 pM.
For the molecule B2, the “Lowest virus neutralizing concentration (pM; IC99)” value was 500 pM.
Turning to B3, the “Lowest virus neutralizing concentration (pM; IC99)” value was found to be 500 pM.
For the molecule B4, the “Lowest virus neutralizing concentration (pM; IC99)” value was determined as 1700 pM.

The target of the next experiment is SARS-CoV-2 wild type RBD (wt_RBD-AviHis) (SARS-CoV-2 (Wuhan/Wildtype strain)). The experiment is described as follows: BLI, biotinylated RBD, mass transport model fit.
In turn, B1 registered a Kd of at most 0.01 nM.
Still for that read-out and setting: in the case of B2 it was at most 0.01 nM; in that of B3, at most 0.01 nM.
The molecule B4 displayed a Kd of at most 0.01 nM.

For a further experiment the target is unchanged. As to the kind of experiment: BLI, biotinylated RBD, mass transport model fit. This is another data set of the same source.
Take B5: the Kd is at most 0.01 nM.
B6 registered a Kd of 0.03 nM.
On the same count and under the same terms, in the case of B7 it was at most 0.01 nM; in that of B8, at most 0.01 nM.
